Results from paper PMC5630700 (Frontiers in Immunology, 2017).

biological target: T1, mbp-NP632 fusion protein (Marburg virus Musoke-80, UniProt P27588); experiment: ELISA; settings: both partners purified
T1 construct: source: E. coli (pE), purified
T1 sequence (P27588 632-695): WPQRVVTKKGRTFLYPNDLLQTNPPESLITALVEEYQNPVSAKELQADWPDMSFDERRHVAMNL

Binder | EC50 [nM]
sdAb B–Gaussia luciferase fusion (glucibody, pecan35) (VHH, also called sdAb B glucibody; sdAb B–gluc; source: E. coli Tuner + pRARE, periplasmic (pecan35), purified) VHH: KVQLQESGGGLVQAGGSLRLSCAASGGTFSINTLGWYRRAPGKEREFVARISSGGITRYADSVKGRFTISRDNGKNTVYLDMNSLKPEDTAVYYCMYRNWGGGLDVYWGQGTQVTVSS | 189
sdAb C–Gaussia luciferase fusion (glucibody, pecan35) (VHH, also called sdAb C glucibody; sdAb C–gluc; source: E. coli Tuner + pRARE, periplasmic (pecan35), purified) VHH: KVQLQESGGGLVQVGGSLRLSCKASGFTFRSSAMGWYRRAPGKQRELVASLTTTGTADYGDFVKGRFTISRDNAENTVDLHMNSLKPEDTAVYYCHEDPYGMESLRYWGQGTQVTVSS | 22.3
sdAb A–Gaussia luciferase fusion (glucibody, pecan35) (VHH, also called sdAb A glucibody; sdAb A–gluc; source: E. coli Tuner + pRARE, periplasmic (pecan35), purified) VHH: EVKLQESGGGLVQAGESLRLSCAVPPEVFDIRTVAWYRQVPLGKGRELLSSITPWNKTTYEDSVKDRFTISRDNAKYTVYLQMNDLKPEDTAVYYCAQGWGIASMRYWGQGTQVTVSS | 15.4

biological target: T2, nluc-NP632 fusion protein (Marburg virus Musoke-80, UniProt P27588); experiment: ELISA; settings: both partners purified
T2 construct: source: E. coli, cytosolic (pENCO derivative), purified

Binder | EC50 [nM]
sdAb B as a BAP fusion (from pecan126) (VHH, also called wild-type sdAb B; source: E. coli HBV88 (pecan126), purified) VHH: KVQLQESGGGLVQAGGSLRLSCAASGGTFSINTLGWYRRAPGKEREFVARISSGGITRYADSVKGRFTISRDNGKNTVYLDMNSLKPEDTAVYYCMYRNWGGGLDVYWGQGTQVTVSS | 28.5
sdAb C as a BAP fusion (from pecan126) (VHH, also called wild-type sdAb C; source: E. coli HBV88 (pecan126), purified) VHH: KVQLQESGGGLVQVGGSLRLSCKASGFTFRSSAMGWYRRAPGKQRELVASLTTTGTADYGDFVKGRFTISRDNAENTVDLHMNSLKPEDTAVYYCHEDPYGMESLRYWGQGTQVTVSS | 26.6
sdAb A as a BAP fusion (from pecan126) (VHH, also called wild-type sdAb A; source: E. coli HBV88 (pecan126), purified) VHH: EVKLQESGGGLVQAGESLRLSCAVPPEVFDIRTVAWYRQVPLGKGRELLSSITPWNKTTYEDSVKDRFTISRDNAKYTVYLQMNDLKPEDTAVYYCAQGWGIASMRYWGQGTQVTVSS | 12.8
